Test results taken from patent US20160311886A1, “Constructs Binding to Phosphatidylserine and Their Use in Disease Treatment and Imaging” (Board of Regents, The University of Texas System, priority 2005, published 2016).

Legend:
[1] = system: cancer patients having progressive disease; conditions: human, in vivo; cited from earlier work
[2] = in vivo; cited from earlier work
[3] = system: ABAE cells with exposed PS; test: Binding of monomeric and dimeric hβ2GPI to LPC-treated cells; format: cell-based, bovine; conditions: 200 μM LPC, DMEM+10% FBS
Procedure: FIG. 24A, FIG. 24B, FIG. 24C and FIG. 24D. An artificial dimeric β2GPI construct binds endothelial cells with exposed PS. ABAE cells were incubated for 30 min with 200 μM LPC in DMEM+10% FBS plus purified hβ2GPI-monomer (FIG. 24A), hβ2GPI-dimer (FIG. 24B), or a mutant hβ2GPI-dimer unable to bind lipid (FIG. 24C). Cells were then washed and incubated with anti-β2GPI to detect hβ2GPI monomers and dimers. […] Cells were then washed, fixed and stained with fluorescent markers. The cytoskeleton appears red, nuclei appear blue, and hβ2GPI-monomers and hβ2GPI-dimers appear green. FIG. 24D, the binding area of hβ2GPI-monomers and hβ2GPI-dimers was quantified using MetaVue software. All values are relative to the binding of hβ2GPI-dimers to non-LPC treated cells, which was set to one.
In these studies, an artificial β2GPI dimer is used, which was generated by fusing hβ2GPI to the C-terminus of the apple 4 dimerization domain of factor XI (Lutters et al., 2001). […] Nonetheless, binding of this dimer to cells with exposed PS validates the use of Fc-β2GPI dimers to bind to PS-positive cells.
ABAE cells were treated with LPC to induce PS exposure and incubated with purified hβ2GPI, hβ2GPI-dimer, or a mutant hβ2GPI-dimer containing a disrupted lipid binding domain. As expected, binding of the monomeric hβ2GPI to LPC-treated ABAE cells was negligible (FIG. 24A).

[4] = system: ABAE cells with exposed PS; test: Live-cell binding assay on LPC-treated endothelial cells; format: cell-based, bovine
Procedure: Adult bovine aortic endothelial (ABAE) cells were maintained in DMEM supplemented with 10% FBS and 2 mM L-glutamine. ABAE cells were removed from subconfluent cultures by brief exposure to 0.25% trypsin/0.02% EDTA, and 8-well chamber slides were seeded with 2×10^4 cells/well. Following overnight culture, cells were washed gently with PBS and treated with 200 μM lysophosphatidylcholine (LPC) to induce PS exposure.
PS exposure was determined by immunofluorescence staining. Cells were washed thoroughly in PBS, fixed in 4% paraformaldehyde (w/v), and incubated with a biotin-conjugated anti-mouse secondary antibody. Next, cells were incubated with FITC-conjugated streptavidin (Jackson Immunoresearch) to detect antibody binding. Cells were then permeablized with 0.1% Triton-X100 in PBS and counterstained with Texas Red-conjugated phalloidin (Molecular Probes, Eugene, Oreg.), and 4′, 6-diamidino-2-phenylindole (DAPI; Molecular Probes). Images were captured using a Coolsnap digital camera (Photometrics, Tucson, Ariz.) mounted on a Nikon microscope and processed with MetaVue software (Universal Imaging Corporation, Downingtown, Pa.).
The area of antibody binding was determined using MetaVue image analysis software, which is able to quantify the number of illuminated pixels in an image. Images of FITC fluorescence were used to quantify antibody binding. Corresponding images of DAPI fluorescence were used to normalize the FITC images for the number of cells present in the field. A small FITC/DAPI ratio indicates a small antibody binding area, whereas a large FITC/DAPI ratio indicates a large binding area. The FITC/DAPI ratios were used to determine increases or decreases in antibody binding area relative to a basal amount of antibody binding under the selected conditions. Five images at 200× magnification were used for each analysis. Data are presented as average relative FITC/DAPI ratios with error bars representing the standard deviation.
Cells were then washed, fixed, and stained with fluorescent markers to visualize binding of antibody to the cell surface.

Which “patients with disease stabilization” value [1] does the source give for `NC(=O)c1nnn(Cc2cc(Cl)c(C(=O)c3ccc(Cl)cc3)c(Cl)c2)c1N` [CAI, carboxyamidotriazole] here?
The value was 49%.

Which “dose shown to be safe for human use” value [2] does the source give for monophosphoryl lipid A [MPL] here?
Its value is 100 μg/m^2.

B1: hβ2GPI: Human β2GPI purified from human plasma (protein)
chain: GRTCPKPDDLPFSTVVPLKTFYEPGEEITYSCKPGYVSRGGMRKFICPLTGLWPINTLKCTPRVCPFAGILENGAVRYTTFEYPNTISFSCNTGFYLNGADSAKCTEEGKWSPELPVCAPIICPPPSIPTFATLRVYKPSAGNNSLYRDTAVFECLPQHAMFGNDTITCTTHGNWTKLPECREVKCPFPSRPDNGFVNYPAKPTLYYKDKATFGCHDGYSLDGPEEIECTKLGNWSAMPSCKASCKLPVKKATVVYQGERVKIQEKFKNGMLHGDKVSFFCKNKEKKCSYTEDAQCIDGTIEVPKCFKEHSSLAFWKTDASDVKPC
What does the source list for B1?
binding to LPC-treated ABAE cells [3]: negligible; mediation of ch3G4 binding to ABAE cells with exposed PS ([4]; 2 μg/ml, LPC): able to mediate binding; binding to endothelial cells with exposed PS ([4]; 10% MS and LPC, absence of ch3G4): does not bind endothelial cells with exposed PS in the absence of ch3G4
